± gives the uncertainty stated by the source.
Assay: self-splicing fitness, log relative to wild type (ln ratio); higher = more splicing; Tetrahymena group I intron in knt gene, E. coli kanamycin selection, DiMSum; sequences stand for … in CUCUCU…GGAGGGAAAAGUUAUCAGGCAUGCACCUGGUAGCUAGUCUUUAAACCAAUAGAUUGCAUCGGUUUAAAAGGCAAGACCGUCAAAUUGCGGGAAAGGGGUCAACAGCCGUUCAGUACCAAGUCUCAGGGGAAACUUUGAGAUGGCCUUGCAAAGGGUAUGGUAAUAAGCUGACGGACAUGGUCCUAACCACGCAGCCAAGUCCUAAGUCAACAGAUCUUCUGUUGAUAUGGAUGCAGUUCACAGACUAAAUGUCGGUCGGGGAAGAUGUAUUCUUCUCAUAAGAUAUAGUCGGACCUCUCCUUAAUGGGAGCUAGCGGAUGAAGUGAUGCAACACUGGAGCCGCUGGGAACUAAUUUGUAUGCGAAAGUAUAUUGAUUAGUUUUGGAGUACUCGUGGUCG
In short: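 A randomised library covering all eight P1ex-region intron nucleotides was built with the intron in the knt kanamycin-resistance gene on pET-22b(+) and held in E. coli BL21(DE3). Cells were grown overnight at 37°C or 30°C on LB agar, with or without 25 μg/mL kanamycin, plus 100 μg/mL carbenicillin, 50 μM IPTG and 0.2% rhamnose, and pooled colonies were amplicon-sequenced on an Illumina HiSeq 2500. DiMSum fitness is the error-weighted combination of wild-type-normalised replicate fold changes, kanamycin versus none.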

Row | Sequence | self-splicing fitness (ln) (30 °C) | self-splicing fitness (ln) (37 °C)
1 | UUCGAGCAAUAUUACGGCAU | -2.95 ± 0.27 | -1.44 ± 0.19
2 | UUCGAGCAAUAUUACGGCGU | -1.44 ± 0.16 | -0.438 ± 0.19
3 | UUCGAGCAAUAUUACGGGCA | -2.27 ± 0.17 | -0.711 ± 0.15
4 | UUCGAGCAAUAUUACGGUGG | -3.36 ± 0.27 | -1.07 ± 0.19
5 | UUCGAGCAAUAUUACGGUUU | -4.44 ± 0.36 | -1.93 ± 0.22
6 | UUCGAGCAAUAUUACGUCGG | -2.96 ± 0.28 | -1.78 ± 0.29
7 | UUCGAGCAAUAUUACGUCUC | -4.02 ± 0.47 | -2 ± 0.16
8 | UUCGAGCAAUAUUACGUGAC | -3.65 ± 0.24 | -3.28 ± 0.27
9 | UUCGAGCAAUAUUACGUUCG | -3.75 ± 0.24 | -2.32 ± 0.27
10 | UUCUAGCAAUAUUACGAAGA | -1.99 ± 0.19 | -1.61 ± 0.21
11 | UUCUAGCAAUAUUACGAAGU |  | -0.603 ± 0.25
12 | UUCUAGCAAUAUUACGAAUC |  | -1.98 ± 0.25
13 | UUCUAGCAAUAUUACGAAUU | -2.96 ± 0.23 | -1.58 ± 0.18
14 | UUCUAGCAAUAUUACGACAU | -2.324 ± 0.019 | -1.57 ± 0.034
15 | UUCUAGCAAUAUUACGCAGC |  | -0.431 ± 0.2
16 | UUCUAGCAAUAUUACGCCAA | -1.75 ± 0.21 | -0.272 ± 0.2
17 | UUCUAGCAAUAUUACGCCCG | -1.09 ± 0.27 | -0.74 ± 0.4
18 | UUCUAGCAAUAUUACGCGAA | -2.25 ± 0.21 | -1.3 ± 0.2
19 | UUCUAGCAAUAUUACGCUAA | -2.53 ± 0.21 | -0.91 ± 0.14
20 | UUCUAGCAAUAUUACGCUAC | -2.37 ± 0.38 | 
21 | UUCUAGCAAUAUUACGCUGU | -2.17 ± 0.17 | -1.63 ± 0.2
22 | UUCUAGCAAUAUUACGGAUG | -1.05 ± 0.098 | -0.888 ± 0.13
23 | UUCUAGCAAUAUUACGGCUU | -3.3 ± 0.39 | -2.22 ± 0.28
24 | UUCUAGCAAUAUUACGGGUG | -0.114 ± 0.078 | 0.281 ± 0.11
25 | UUCUAGCAAUAUUACGGUCC |  | -2.46 ± 0.39

Row | Sequence | self-splicing fitness (ln) (30 °C) | self-splicing fitness (ln) (37 °C)
26 | UUCUAGCAAUAUUACGGUGG | -4.34 ± 0.39 | -2.5 ± 0.26
27 | UUCUAGCAAUAUUACGGUUG | -1.64 ± 0.11 | -1.78 ± 0.17
28 | UUCUAGCAAUAUUACGUACA | -1.39 ± 0.19 | -0.376 ± 0.22
29 | UUCUAGCAAUAUUACGUACG | -1.82 ± 0.14 | -0.281 ± 0.14
30 | UUCUAGCAAUAUUACGUCUG | -2.22 ± 0.12 | -2.49 ± 0.21
31 | UUCUAGCAAUAUUACGUGAG | -0.386 ± 0.06 | -0.345 ± 0.11
32 | UUCUAGCAAUAUUACGUGCG | -1.98 ± 0.14 | -2.14 ± 0.13
33 | UUCUAGCAAUAUUACGUGUU | -3.36 ± 0.17 | -3.2 ± 0.19
34 | UUCUAGCAAUAUUACGUUAG | -3.63 ± 0.29 | -2.67 ± 0.37
35 | UUCUAGCAAUAUUACGUUCA | -0.579 ± 0.16 | -1.11 ± 0.18
36 | UUCUAGCAAUAUUACGUUCG | -2.17 ± 0.14 | -1.29 ± 0.16
37 | UUGAAGCAAUAUUACGAAGC | -3.4 ± 0.3 | -2.48 ± 0.49
38 | UUGAAGCAAUAUUACGCAGA | -0.643 ± 0.13 | 0.228 ± 0.11
39 | UUGAAGCAAUAUUACGCAGG | -1.15 ± 0.092 | -0.283 ± 0.098
40 | UUGAAGCAAUAUUACGCCUC |  | -1.63 ± 0.42
41 | UUGAAGCAAUAUUACGCUGU | -1.96 ± 0.14 | -1.84 ± 0.16
42 | UUGAAGCAAUAUUACGCUUA | -1.17 ± 0.083 | -0.467 ± 0.093
43 | UUGAAGCAAUAUUACGGAUU | -1.18 ± 0.081 | -0.94 ± 0.12
44 | UUGAAGCAAUAUUACGGCUA | -0.00358 ± 0.093 | -0.295 ± 0.096
45 | UUGAAGCAAUAUUACGGUCA | -0.522 ± 0.075 | -0.262 ± 0.099
46 | UUGAAGCAAUAUUACGUAGU | -1.97 ± 0.12 | -1.54 ± 0.12
47 | UUGAAGCAAUAUUACGUAUG | -0.752 ± 0.079 | -0.391 ± 0.11
48 | UUGAAGCAAUAUUACGUCUU | -3.1 ± 0.18 | -1.24 ± 0.12
49 | UUGAAGCAAUAUUACGUUCA | 0.472 ± 0.094 | 0.134 ± 0.11
50 | UUGAAGCAAUAUUACGUUUA | -1.08 ± 0.062 | -0.682 ± 0.084

Row | Sequence | self-splicing fitness (ln) (30 °C) | self-splicing fitness (ln) (37 °C)
51 | UUGCAGCAAUAUUACGAAAA | -1.02 ± 0.12 | -0.432 ± 0.12
52 | UUGCAGCAAUAUUACGAACG | -0.781 ± 0.19 | -0.482 ± 0.2
53 | UUGCAGCAAUAUUACGACCG | -0.719 ± 0.065 | -0.144 ± 0.093
54 | UUGCAGCAAUAUUACGACCU | -0.892 ± 0.1 | -0.129 ± 0.15
55 | UUGCAGCAAUAUUACGACGC | -3.11 ± 0.46 | 
56 | UUGCAGCAAUAUUACGAGAG | -3.54 ± 0.23 | -1.36 ± 0.21
57 | UUGCAGCAAUAUUACGAGCG | -1.14 ± 0.15 | -0.665 ± 0.15
58 | UUGCAGCAAUAUUACGCCAG | -0.879 ± 0.13 | 0.0127 ± 0.2
59 | UUGCAGCAAUAUUACGCCGA | -0.318 ± 0.11 | -0.371 ± 0.12
60 | UUGCAGCAAUAUUACGCCGU | -3.46 ± 0.36 | -1.41 ± 0.3
61 | UUGCAGCAAUAUUACGGCAU | -2.44 ± 0.19 | -1.19 ± 0.1
62 | UUGCAGCAAUAUUACGGCGA | -1.53 ± 0.12 | -0.929 ± 0.14
63 | UUGCAGCAAUAUUACGGGCA | -1.31 ± 0.13 | -0.764 ± 0.14
64 | UUGCAGCAAUAUUACGGGGG | -2.4 ± 0.17 | -2.23 ± 0.24
65 | UUGCAGCAAUAUUACGGGGU | -4.28 ± 0.2 | -2.51 ± 0.18
66 | UUGCAGCAAUAUUACGGUCG | -0.4 ± 0.089 | 0.21 ± 0.12
67 | UUGCAGCAAUAUUACGGUUC | -4.6 ± 0.27 | -1.67 ± 0.18
68 | UUGCAGCAAUAUUACGUGCU | -3.19 ± 0.22 | -1.84 ± 0.22
69 | UUGCAGCAAUAUUACGUGUC | -3.3 ± 0.17 | -3.15 ± 0.24
70 | UUGGAGCAAUAUUACGAAUC |  | -2.58 ± 0.5
71 | UUGGAGCAAUAUUACGAUCG | -2.53 ± 0.24 | -1.66 ± 0.2
72 | UUGGAGCAAUAUUACGCGUA | -3.77 ± 0.28 | -2.13 ± 0.23
73 | UUGGAGCAAUAUUACGCUGU | -3.36 ± 0.41 | -2.35 ± 0.37
74 | UUGGAGCAAUAUUACGGAAG | -3.3 ± 0.44 | 
75 | UUGGAGCAAUAUUACGGACU | -3.18 ± 0.34 | -2.65 ± 0.35

Row | Sequence | self-splicing fitness (ln) (30 °C) | self-splicing fitness (ln) (37 °C)
76 | UUGGAGCAAUAUUACGGUAU | -2.95 ± 0.26 | -1.98 ± 0.28
77 | UUGGAGCAAUAUUACGUACC | -3.52 ± 0.43 | -2.01 ± 0.44
78 | UUGGAGCAAUAUUACGUCCU | -2.05 ± 0.2 | -0.535 ± 0.17
79 | UUGGAGCAAUAUUACGUGGC | -3.14 ± 0.24 | -0.804 ± 0.25
80 | UUGGAGCAAUAUUACGUUAG | -3.62 ± 0.2 | -1.49 ± 0.22
81 | UUGGAGCAAUAUUACGUUUU | -1.64 ± 0.19 | -2.55 ± 0.18
82 | UUGUAGCAAUAUUACGACCU | -1.39 ± 0.15 | -0.134 ± 0.16
83 | UUGUAGCAAUAUUACGACUA | -0.429 ± 0.13 | -0.0263 ± 0.16
84 | UUGUAGCAAUAUUACGACUG | -0.0934 ± 0.12 | -0.0721 ± 0.14
85 | UUGUAGCAAUAUUACGAUAC | -1.91 ± 0.22 | 
86 | UUGUAGCAAUAUUACGCAUG | -1.86 ± 0.13 | 0.0958 ± 0.14
87 | UUGUAGCAAUAUUACGCAUU | -2.84 ± 0.43 | -2.26 ± 0.32
88 | UUGUAGCAAUAUUACGCCCG | -0.143 ± 0.22 | -0.0661 ± 0.23
89 | UUGUAGCAAUAUUACGCCCU | -0.23 ± 0.24 | -0.0821 ± 0.2
90 | UUGUAGCAAUAUUACGCGAC |  | -0.429 ± 0.37
91 | UUGUAGCAAUAUUACGCGGA | -1.43 ± 0.13 | -0.3 ± 0.11
92 | UUGUAGCAAUAUUACGCUAA | -0.865 ± 0.17 | -0.386 ± 0.19
93 | UUGUAGCAAUAUUACGGAAU | -1.94 ± 0.15 | -3.26 ± 0.32
94 | UUGUAGCAAUAUUACGGAGU |  | -2.5 ± 0.36
95 | UUGUAGCAAUAUUACGGAUG | -1.9 ± 0.12 | -1.56 ± 0.15
96 | UUGUAGCAAUAUUACGGCGC |  | -2.34 ± 0.2
97 | UUGUAGCAAUAUUACGGCGG | -0.508 ± 0.11 | -0.332 ± 0.14
98 | UUGUAGCAAUAUUACGGCGU | -1.2 ± 0.1 | -0.999 ± 0.12
99 | UUGUAGCAAUAUUACGGGGU | -3.7 ± 0.46 | -2.68 ± 0.27
